Source: paper doi:10.1101/580944 (bioRxiv, 2019)
Where two headings read alike, the source gives them in different places.

Legend:
FtsZ (E. coli) [1] = target: T1, FtsZ (E. coli (by the printed UniProt entry; not said in words for the construct)); assay: FRAP
FtsZ (E. coli) [2] = target: T1, FtsZ (E. coli); assay: single molecule tracking
FtsZ (E. coli) [3] = target: T1, FtsZ (E. coli); assay: single molecule tracking; remark: listed apart in the source
SEC = target: the molecule itself; assay: SEC

Work on FtsZ (natural protein) yielded an FRAP recovery half-time (at 6.0 μM ZapA) (FtsZ (E. coli) [1]) of 6.66 s, an FRAP recovery half-time (in the absence of ZapA) (FtsZ (E. coli) [1]) of 7.63 s and a lifetime of single FtsZ monomers in the filaments (with ZapA) (FtsZ (E. coli) [2]) of 6.01 s. It also gave a lifetime of single FtsZ monomers in the filaments (without ZapA) (FtsZ (E. coli) [2]) of 6.59 s.

With ZapA-Cy5 (natural protein) the FRAP recovery half-time (FtsZ (E. coli) [1]) was 3.01 s, the lifetime of single molecules on FtsZ filaments (FtsZ (E. coli) [2]) was 0.94 s and the lifetime of single molecules on FtsZ filaments (FtsZ (E. coli) [3]) was 0.95.

B1: ZapA (natural protein, UniProt P0ADS2 1-109, looked up)
chain: MSAQPVDIQIFGRSLRVNCPPDQRDALNQAADDLNQRLQDLKERTRVTNTEQLVFIAALNISYELAQEKAKTRDYAASMEQRIRMLQQTIEQALLEQGRITEKTNQNFE
B1: binds (SEC).
